Target: T1, EGFR on A431 cell line (overexpresses EGFR) (UniProt P00533 25-1210)
T1 construct: whole, on cells; also called A431 cells; cells overexpressing EGFR
Assay: cell ELISA on A431 cells attached to the plate, antibody titrated
Method: Binding capacity between the antibody obtained in 5 and the A431 cell line (ATCC) which overexpresses EGFR is determined by ELISA [Biological efficacy of a chimeric antibody to the epidermal growth factor receptor in a human tumor xenograft model, Clinic. Cancer res., 1995, vol. 1, 1311-1318] (the entire contents of which are incorporated herein by reference). The protocol for the ELISA assay is similar to that described in 6 above, except that antibody was used over a range of concentration and A431 cells were attached to the plate.

B1: Erbb1 78 clone antibody (fully human full-length IgG) (antibody, V domains shown)
VH: QMQLVQSGGGVVRPGGSLRLSCAASGFTFDDYGMSWVRQAPGKGLEWVSGINWNGGSTGYADSVKGRFTISRDNAKNSLYLQMNSLRAEDTAVYYCARDYWGSLDYWGQGTLITVSS
VL: QSALTQPASVSGSPGQSITISCTGTSSDVGGYNYVSWYQQNSGKAPKLMIHDVNRRPSGVSNRFSGSKSGNTASLTIAGLQADDEADYYCSSYVSTNTYVFGTGTKVTVL
notes: also called Erbb1-78 antibody
For B1, the Kd was 1.09 nM.

Reference: patent publication US20110280883A1 (SAMSUNG ELECTRONICS, published 2011)
